Assay results reported in US20200024330A1.

Legend:
Assay in all cases: cell-based or functional assay
[1] = target: HIV-1 Env of isolate MGRM-AE-004 (pseudovirus) (HIV-1)
[2] = target: HIV-1 Env of isolate 92WR021 (pseudovirus) (HIV-1)
[3] = target: HIV-1 Env of isolate MGRM-D-003 (subtype D), on pseudovirus (HIV-1)
[4] = target: HIV-1 Env of isolate MGRM-D-001 (subtype D), on pseudovirus (HIV-1)
[5] = target: HIV-1 Env of isolate 6535.3 (HIV-1)
[6] = target: HIV-1 Env of isolate 92UG001 (subtype D), on pseudovirus (HIV-1)
[7] = target: HIV-1 Env of isolate APV_13 (HIV-1)
[8] = target: HIV-1 Env of isolate MGRM-Chronic-B-002 (HIV-1)
[9] = target: HIV-1 Env of isolate MGRM-Chronic-B-004 (HIV-1)
[10] = target: HIV-1 Env of isolate CAAN.A2 (HIV-1)
[11] = target: HIV-1 Env of isolate 94 KE 105 (pseudovirus) (HIV-1)
[12] = target: HIV-1 Env of isolate MGRM-AE-002 (pseudovirus) (HIV-1)
[13] = target: HIV-1 Env of isolate MG RM-A-009 (pseudovirus) (HIV-1)
[14] = target: HIV-1 Env of isolate 92UG046 (subtype D), on pseudovirus (HIV-1)
[15] = target: HIV-1 Env of isolate CMU02 (pseudovirus) (HIV-1)
[16] = target: HIV-1 Env of isolate 92UG037 (pseudovirus) (HIV-1)
[17] = target: HIV-1 Env of isolate 92RW009 (clade A), on pseudovirus (HIV-1)
[18] = target: HIV-1 Env of isolate 92RW008 (clade A), on pseudovirus (HIV-1)
[19] = target: HIV-1 Env of isolate VLGCA1 (pseudovirus) (HIV-1)
[20] = target: HIV-1 Env of isolate 92WR026 (pseudovirus) (HIV-1)
[21] = target: HIV-1 Env of isolate MGRM-D-002 (subtype D), on pseudovirus (HIV-1)
[22] = target: HIV-1 Env of isolate MGRM-AE-005 (pseudovirus) (HIV-1)
[23] = target: HIV-1 Env of isolate 92BR020 (HIV-1)
[24] = target: HIV-1 Env of isolate MG RM-A-013 (pseudovirus) (HIV-1)
[25] = target: HIV-1 Env of isolate 92UG114 (subtype D), on pseudovirus (HIV-1)
[26] = target: HIV-1 Env of isolate 92UG031 (pseudovirus) (HIV-1)
[27] = target: HIV-1 Env of isolate MGRM-Chronic-B-003 (HIV-1)
[28] = target: HIV-1 Env of isolate MGRM-D-005 (subtype D), on pseudovirus (HIV-1)
[29] = target: HIV-1 Env of isolate 92WR020 (pseudovirus) (HIV-1)
[30] = target: HIV-1 Env of isolate MG RM-A-005 (pseudovirus) (HIV-1)
[31] = target: HIV-1 Env of isolate 98CN006 (subtype CRF08 BC), on pseudovirus (HIV-1)
[32] = target: HIV-1 Env of isolate MG RM-A-007 (pseudovirus) (HIV-1)
[33] = target: HIV-1 Env of isolate 93WR029 (pseudovirus) (HIV-1)
[34] = target: HIV-1 Env of isolate MG RM-A-010 (pseudovirus) (HIV-1)
[35] = target: HIV-1 Env of isolate MGRM-AE-003 (pseudovirus) (HIV-1)
[36] = target: HIV-1 Env of isolate MG RM-A-008 (pseudovirus) (HIV-1)
[37] = target: HIV-1 Env of isolate APV_6 (HIV-1)
[38] = target: HIV-1 Env of isolate MGRM-AE-006 (pseudovirus) (HIV-1)
[39] = target: HIV-1 Env of isolate MG RM-A-012 (pseudovirus) (HIV-1)
[40] = target: HIV-1 Env of isolate 93TH305 (HIV-1)
[41] = target: HIV-1 Env of isolate MGRM-Chronic-B-001 (HIV-1)
[42] = target: HIV-1 Env of isolate JRFL (HIV-1)
[43] = target: HIV-1 Env of isolate MG RM-A-014 (pseudovirus) (HIV-1)
[44] = target: HIV-1 Env of isolate 92TH021 (pseudovirus) (HIV-1)
[45] = target: HIV-1 Env of isolate 98CN009 (subtype CRF07_BC), on pseudovirus (HIV-1)
[46] = target: HIV-1 Env of isolate APV_17 (HIV-1)
[47] = target: HIV-1 Env of isolate MGRM-D-004 (subtype D), on pseudovirus (HIV-1)
[48] = target: HIV-1 Env of isolate MG RM-A-006 (pseudovirus) (HIV-1)
[49] = target: HIV-1 Env of isolate 92UG024 (subtype D), on pseudovirus (HIV-1)
[50] = target: HIV-1 Env of isolate MGRM-Chronic-B-008 (HIV-1)
[51] = target: HIV-1 Env of isolate MGRM-D-008 (subtype D), on pseudovirus (HIV-1)
[52] = target: HIV-1 Env of isolate 94UG103 (pseudovirus) (HIV-1)
[53] = target: HIV-1 Env of isolate MG RM-A-011 (pseudovirus) (HIV-1)
[54] = target: HIV-1 Env of isolate MGRM-AE-001 (pseudovirus) (HIV-1)
[55] = target: HIV-1 Env of isolate 92WR024 (pseudovirus) (HIV-1)
[56] = target: HIV-1 Env of isolate 92UG005 (subtype D), on pseudovirus (HIV-1)
[57] = target: HIV-1 Env of isolate 93UG077 (pseudovirus) (HIV-1)

Sequence of 4995_P16 (PGT-145) (antibody) (VH): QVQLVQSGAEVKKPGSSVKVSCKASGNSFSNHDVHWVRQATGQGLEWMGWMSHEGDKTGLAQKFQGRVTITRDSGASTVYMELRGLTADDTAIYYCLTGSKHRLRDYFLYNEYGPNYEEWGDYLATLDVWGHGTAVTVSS
Sequence of 4995_P16 (PGT-145) (antibody) (VL): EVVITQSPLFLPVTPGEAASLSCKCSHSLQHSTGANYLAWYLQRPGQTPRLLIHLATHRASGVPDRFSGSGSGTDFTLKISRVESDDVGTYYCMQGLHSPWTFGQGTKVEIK

Substance: 4995_P16 (PGT-145) (antibody)
- IC50 (µg/mL), pseudovirus neutralization [1]: 0.006 µg/mL
- IC50 (µg/mL), pseudovirus neutralization [2]: 1.62 µg/mL
- IC50, pseudovirus neutralization [3]: 0.006 µg/mL
- IC50, pseudovirus neutralization [4]: 0.56 µg/mL
- IC50 [5]: > 50 µg/mL
- IC50, pseudovirus neutralization [6]: > 50 µg/mL
- IC50 [7]: 0.337 µg/mL
- IC50 [8]: 3.67 µg/mL
- IC50 [9]: 0.023 µg/mL
- IC50 [10]: 7.08 µg/mL
- IC50 (µg/mL), pseudovirus neutralization [11]: 1.32 µg/mL
- IC50 (µg/mL), pseudovirus neutralization [12]: 1.87 µg/mL
- IC50 (µg/mL), pseudovirus neutralization [13]: 0.235 µg/mL
- IC50, pseudovirus neutralization [14]: > 50 µg/mL
- IC50 (µg/mL), pseudovirus neutralization [15]: 1.43 µg/mL
- IC50 (µg/mL), pseudovirus neutralization [16]: 3.15 µg/mL
- IC50, single-round pseudovirus neutralization [17]: 0.026 µg/mL
- IC50, single-round pseudovirus neutralization [18]: 0.4 µg/mL
- IC50 (µg/mL), pseudovirus neutralization [19]: 8.01 µg/mL
- IC50 (µg/mL), pseudovirus neutralization [20]: 1.45 µg/mL
- IC50, pseudovirus neutralization [21]: > 50 µg/mL
- IC50 (µg/mL), pseudovirus neutralization [22]: 0.967 µg/mL
- IC50 [23]: 1.05 µg/mL
- IC50 (µg/mL), pseudovirus neutralization [24]: 1.76 µg/mL
- IC50, pseudovirus neutralization [25]: 20.1 µg/mL
- IC50 (µg/mL), pseudovirus neutralization [26]: 3.22 µg/mL
- IC50 [27]: 0.045 µg/mL
- IC50, pseudovirus neutralization [28]: 10.4 µg/mL
- IC50 (µg/mL), pseudovirus neutralization [29]: 0.997 µg/mL
- IC50 (µg/mL), pseudovirus neutralization [30]: 0.128 µg/mL
- IC50, pseudovirus neutralization [31]: > 50 µg/mL
- IC50 (µg/mL), pseudovirus neutralization [32]: > 50 µg/mL
- IC50 (µg/mL), pseudovirus neutralization [33]: > 50 µg/mL
- IC50 (µg/mL), pseudovirus neutralization [34]: 0.028 µg/mL
- IC50 (µg/mL), pseudovirus neutralization [35]: 0.552 µg/mL
- IC50 (µg/mL), pseudovirus neutralization [36]: > 50 µg/mL
- IC50 [37]: 0.104 µg/mL
- IC50 (µg/mL), pseudovirus neutralization [38]: > 50 µg/mL
- IC50 (µg/mL), pseudovirus neutralization [39]: 0.23 µg/mL
- IC50 [40]: 0.032 µg/mL
- IC50 [41]: 3.22 µg/mL
- IC50 [42]: 30.4 µg/mL
- IC50 (µg/mL), pseudovirus neutralization [43]: 1.36 µg/mL
- IC50 (µg/mL), pseudovirus neutralization [44]: 0.013 µg/mL
- IC50, pseudovirus neutralization [45]: 0.136 µg/mL
- IC50 [46]: 0.488 µg/mL
- IC50, pseudovirus neutralization [47]: 10.9 µg/mL
- IC50 (µg/mL), pseudovirus neutralization [48]: > 50 µg/mL
- IC50, pseudovirus neutralization [49]: 1.6 µg/mL
- IC50 [50]: 1.9 µg/mL
- IC50, pseudovirus neutralization [51]: 0.025 µg/mL
- IC50 (µg/mL), pseudovirus neutralization [52]: 0.331 µg/mL
- IC50 (µg/mL), pseudovirus neutralization [53]: 0.484 µg/mL
- IC50 (µg/mL), pseudovirus neutralization [54]: 20.9 µg/mL
- IC50 (µg/mL), pseudovirus neutralization [55]: 0.069 µg/mL
- IC50, pseudovirus neutralization [56]: > 50 µg/mL
- IC50 (µg/mL), pseudovirus neutralization [57]: > 50 µg/mL
